Assay results: the supplement of paper PMC10567573
± gives the standard deviation.

Test: protein stability index of a GFP-peptide fusion (GPS, HEK-293T) (PSI 1-6); higher = more stable
[1] = treatment: DMSO, c terminus: a fixed tail appended
[2] = treatment: MLN4924 1 uM, 8 h, c terminus: a fixed tail appended
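Further: 24-mer peptide tiles fused after GFP, lentivirally expressed, FACS-sorted into six equal bins by GFP/DsRed ratio, decoded by Illumina sequencing, PSI is the read-weighted mean bin number.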

| Sequence | protein stability index [1] | protein stability index [2] | protein stability index (treatment: DMSO, c terminus: native) | protein stability index (treatment: MLN4924 1 uM, 8 h, c terminus: native) |
| --- | --- | --- | --- | --- |
| LHSHRHLYPEGIGARQQQVTTYLH [POMT2] | 2.76 ± 0.21 | 2.82 ± 0.2 |  |  |
| IIVSIVHSVFEFLAFKNDIQFWNS [CLPTM1] | 3.5 ± 0.83 | 2.75 ± 0.65 |  |  |
| LSGGLGAGSCRLGSAGGLGSTLGG [KRT17] | 2.47 ± 0.23 | 2.37 ± 0.28 |  |  |
| FAPLWEVFRVSSDKLALCHLELTR [FCHO1] | 2.68 ± 0.36 | 2.52 ± 0.29 |  |  |
| RNIMNLIDIVAIIPYFITLGTELA [KCNA3] | 2.84 ± 0.4 | 2.97 ± 0.21 |  |  |
| DEDLDLIPPKSVNPTCMCCQATSS [FAM219A] | 4.63 ± 0.33 | 4.53 ± 0.63 |  |  |
| EVAAQLPAVRQLLPCARVQICRAQ [ZSWIM9] | 2.42 ± 0.23 | 2.77 ± 0.35 |  |  |
| REKIMKLPLPESLKAYLTYFRDK [PCMTD1] |  |  | 2.05 ± 0.36 | 2.59 ± 0.34 |
| RCMQCDAKFDFLTRKHHCRRCGKC [ZFYVE21] | 3.94 ± 0.34 | 4.3 ± 0.3 |  |  |
| AAVKLADFGLAIEVQGDQQAWFGF [CAMK2B] | 2.33 ± 0.75 | 2.62 ± 0.77 |  |  |
| MEAMAASTSLPDPGDFDRNVPRIC [VDR] | 4.53 ± 0.11 | 4.53 ± 0.19 |  |  |
| LEENELTSLAEDLLGLTDPNGGLA [TRADD] | 4.49 ± 0.27 | 4.43 ± 0.29 |  |  |
| LKIELETYKLKCKALQEENRDLRK [CCDC6] | 4.25 ± 0.29 | 4.63 ± 0.23 |  |  |
| LHPRGKNNFSPLHLAVDKNTTCVG [FEM1C] | 3.39 ± 0.13 | 3.43 ± 0.12 |  |  |
| DEKQQEANETLAEMEEELRYAPLS [VTI1B] | 5.55 ± 0.15 | 5.55 ± 0.2 |  |  |
| DALQRYGTSHGAPPARGPRMSYGG [RBMY1A1] | 3.82 ± 0.23 | 3.82 ± 0.21 |  |  |
| EATKEVHTQAENAEFMRNFQKGQV [HMOX1] | 5.04 ± 0.17 | 5.21 ± 0.23 |  |  |
| EGGEVRFNGKGKKIRKPRTIYCSL [DLX1] | 2.92 ± 0.1 | 3.39 ± 0.26 |  |  |
| MPSKLFAGLVHVKQCIVAHPVNPP [CRYL1] | 2.37 ± 0.17 | 2.46 ± 0.35 |  |  |
| YYRGFTLFQTHENREHLVMMEKIL [CLK3] | 2.31 ± 0.31 | 2.34 ± 0.37 |  |  |
| FKSLDKKNDGRIDAQEIMQSLRDL [SLC25A25] | 4 ± 0.2 | 3.92 ± 0.34 |  |  |
| QEPDFIDDIEEKTPISNEVEMESE [KMT2E] | 5.24 ± 0.22 | 5.43 ± 0.23 |  |  |

| Sequence | protein stability index [1] | protein stability index [2] | protein stability index (treatment: DMSO, c terminus: native) | protein stability index (treatment: MLN4924 1 uM, 8 h, c terminus: native) |
| --- | --- | --- | --- | --- |
| DLRTVDPETQARLEALLEAAGIGK [ANKRD17] | 3.84 ± 0.36 | 3.94 ± 0.16 |  |  |
| RKDMIAEKLAPSEITEELPSSQLM [ZNF396] | 4.98 ± 0.16 | 4.86 ± 0.27 |  |  |
| LEVNRLMGKLLQQPNTYADFEFLA [PKD2L1] | 2.17 ± 0.37 | 2.48 ± 0.14 |  |  |
| YEKKFDTFIPLEPLPQIPNLPFWV [SPATS1] | 2.24 ± 0.31 | 1.95 ± 0.18 |  |  |
| MSLLPDKKTVHYYAELGQCSVFPA [PLK2] | 2.41 ± 0.13 | 2.44 ± 0.35 |  |  |
| EEQESVDTGEEEEGGDESDLSSES [EHMT1] | 5.57 ± 0.19 | 5.64 ± 0.16 |  |  |
| DSSEKELEPEAAEEALENGPKESL [ACBD3] | 5.62 ± 0.24 | 5.55 ± 0.22 |  |  |
| TAISSFTRHVFTCGRRGIKVWSLT [TLE6] | 2.15 ± 0.47 | 2.16 ± 0.44 |  |  |
| PGLPGSTGNPKSEEPEVPDQEGLQ [SPNS1] | 5.39 ± 0.75 | 4.88 ± 0.22 |  |  |
| PQELLEWELVVLGKLKWNLAAVTP [CCND2] | 2.47 ± 0.77 | 2.36 ± 0.57 |  |  |
| NIYETGDVCISILHPPVDDPQSGE [CDC34] | 4.52 ± 0.11 | 4.51 ± 0.29 |  |  |
| GSSSDNRTYRYSNRYCGGPGPPIT [DYRK1B] | 2.57 ± 0.42 | 2.75 ± 0.19 |  |  |
| SMSGGRFRCPTCRHEVIMDRHGVY [TRIM63] | 2.24 ± 0.11 | 2.39 ± 0.35 |  |  |
| GSIEYSCPASNECEITKRRRKACQ [ESRRA] | 4.88 ± 0.23 | 4.97 ± 0.25 |  |  |
| SRDGMNIVLNKINQILMEKYLKLQ [INTS3] | 3.05 ± 0.81 | 2.43 ± 0.58 |  |  |
| EKQADFLDKQMSRDEHRARAMKIP [NFE2L1] | 4.46 ± 0.16 | 4.58 ± 0.12 |  |  |
| NTEVVQVAAGRTQKAGVTRSGRLI [NEK8] | 4.32 ± 0.21 | 4.4 ± 0.16 |  |  |
| SGAGRRKNATRETTSTLKAWLNEH [IRX6] | 3.55 ± 0.28 | 3.58 ± 0.23 |  |  |
| YRFRMKCHLCVNYIEMQTDPANCD [YJU2B] | 2.3 ± 0.31 | 2.26 ± 0.17 |  |  |
| SLQDASRGDPAHAGLAELGHRLAQ [PBXIP1] | 4.33 ± 0.34 | 4.38 ± 0.27 |  |  |
| YHNSPAYLAYINAKSRAEAALEEE [SMARCE1] | 2.53 ± 0.54 | 4.01 ± 0.38 |  |  |
| MPPVSYDVQLLHSWNNNDRSLNVF [SPSB1] | 2.46 ± 0.15 | 2.26 ± 0.27 |  |  |

| Sequence | protein stability index [1] | protein stability index [2] | protein stability index (treatment: DMSO, c terminus: native) | protein stability index (treatment: MLN4924 1 uM, 8 h, c terminus: native) |
| --- | --- | --- | --- | --- |
| VKRKKNVLRLCCKKLKIFAMPMQD [PRAME] | 2.29 ± 0.37 | 2.2 ± 0.15 |  |  |
| STKTPAPCSEFMEPSSDPSLLGEP [SPAG8] | 5.24 ± 0.44 | 5.25 ± 0.081 |  |  |
| YLYTYDSQITDSEHNSSLVSQQTG [ZNF8] | 3.73 ± 0.2 | 3.71 ± 0.11 |  |  |
| IITSRILVDQVTGVSRGVGFIRFD [ELAVL3] | 2.42 ± 0.53 | 2.53 ± 0.28 |  |  |
| EITTLRQVLSAKERHLVEIKQKLG [TPD52L1] | 2.97 ± 0.57 | 3.16 ± 0.12 |  |  |
| SLFIALITGAYDTIKHPGGAGAEE [MCOLN1] | 2.45 ± 0.58 | 2.2 ± 0.44 |  |  |
| TLARMSRRTRGPVERAAAAAAAAA [C6orf223] | 3.02 ± 0.56 | 3.43 ± 0.91 |  |  |
| QNVVVKTLWKHQFAWPFYQPVDAI [BRD3] | 2.31 ± 0.46 | 2.29 ± 0.45 |  |  |
| KEIESQGSIPGFLISSGMSSHKQG [TAF7L] | 4.42 ± 0.2 | 4.11 ± 0.48 |  |  |
| TGPRLSFPLLPDHATALVEAFRLK [PPEF2] | 2.89 ± 0.23 | 3.07 ± 0.19 |  |  |
| MASNERDAISWYQKKIGAYDQQIW [PHTF1] | 2.51 ± 0.39 | 2.55 ± 0.16 |  |  |
| FYHCSNDDEGDSYSDNPCSCSQSH [SPRY1] | 4.28 ± 0.076 | 4.31 ± 0.25 |  |  |
| QALLRISLDKVQRSLGPRAPSLRR [SERTAD3] | 2.68 ± 0.46 | 2.62 ± 0.36 |  |  |
| GQSVTAVGRIIAPLLSGVAQEVSP [MFSD9] | 3.39 ± 0.19 | 3.44 ± 0.19 |  |  |
| TLTKQDTMLKAMFSGRMEVLTDSE [KCTD10] | 4.09 ± 0.26 | 4.32 ± 0.2 |  |  |
| HTFKTRFTQPLLPAFTVWCGSFQV [FSD1] | 3.1 ± 0.55 | 2.69 ± 1.1 |  |  |
| KIKDEVHPEVKCVGSVALTALVTV [C8orf76] | 2.61 ± 0.26 | 2.11 ± 0.85 |  |  |
| KLPLPIALRSHLKSFSMANGLNAR [RAB40B] | 2.41 ± 0.23 | 2.46 ± 0.19 |  |  |
| EVTVQRNCCLTLCNFSIPEELEFQ [ZER1] | 2.68 ± 0.26 | 2.59 ± 0.42 |  |  |
| LGVIQRDLAKTGCVDLTITNLLEG [AUP1] | 2.52 ± 0.18 | 2.61 ± 0.46 |  |  |
| EGVATYAAAVLFRMSEDKPQDYKK [CTNNB1] | 3.45 ± 0.17 | 3.46 ± 0.21 |  |  |
